How the values were obtained:
[1] = target: T1, TNFR2 on human cells (Kym-1 cells; human CD3+ T cells) (human, UniProt P20333 23-461); assay: cell-based or functional assay
T1 sequence (looked up): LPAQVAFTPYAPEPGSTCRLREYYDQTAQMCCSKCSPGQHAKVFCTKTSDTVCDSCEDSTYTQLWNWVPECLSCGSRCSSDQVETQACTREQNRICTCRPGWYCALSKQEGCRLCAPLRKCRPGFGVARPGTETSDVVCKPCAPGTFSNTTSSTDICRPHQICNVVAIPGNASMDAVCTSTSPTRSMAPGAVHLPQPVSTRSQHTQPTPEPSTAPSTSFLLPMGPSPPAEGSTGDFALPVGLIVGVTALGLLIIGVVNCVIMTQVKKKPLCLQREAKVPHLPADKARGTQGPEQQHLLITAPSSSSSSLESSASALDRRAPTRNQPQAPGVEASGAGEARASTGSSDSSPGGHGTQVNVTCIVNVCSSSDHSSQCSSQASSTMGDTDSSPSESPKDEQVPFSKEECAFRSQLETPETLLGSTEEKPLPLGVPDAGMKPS

[2] = target: T1, TNFR2 on human cells (Kym-1 cells; …); assay: cell-based or functional assay; remark: listed apart in the source
[3] = target: T2, human TNFR2-Fc fusion protein (human, UniProt P20333 23-257); assay: ELISA, huTNFR2-Fc coated at 1 µg/ml, bound protein detected with anti-TNF F6C5
T2 construct: also called huTNFR2-Fc; huTNFR2
T2 sequence (looked up): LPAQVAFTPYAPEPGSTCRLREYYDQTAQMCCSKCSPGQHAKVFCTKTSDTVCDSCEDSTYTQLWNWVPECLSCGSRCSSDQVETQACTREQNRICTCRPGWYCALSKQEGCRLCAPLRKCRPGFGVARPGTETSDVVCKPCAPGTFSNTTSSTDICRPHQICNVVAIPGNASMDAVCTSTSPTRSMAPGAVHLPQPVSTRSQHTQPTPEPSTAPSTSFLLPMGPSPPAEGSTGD
Method: ELISA plates (Greiner, Frickenhausen, Germany) were coated with huTNFR1-Fc, mTNFR1-Fc, huTNFR2-Fc or mTNFR2-Fc fusion proteins at 1 μg/ml in PBS and incubated at 4° C. overnight. Residual binding sites were blocked with 2% skim milk powder in PBS at RT for 2 hours. ScTNFR2 and the complexes were diluted in 2% skim milk powder in PBS and added at concentrations in the range of 10⁻³ to 10 nM and incubated for 1 hour at RT. Between each step, non-bound proteins were removed by washing 4 times with 0.005% Tween-20 in PBS.
Bound proteins were detected with mouse monoclonal antibodies to TNF (clone F6C5; 1 μg/ml; incubation for 1 hour at RT) and HRP-conjugated anti-mouse IgG antibodies (diluted 1:10000; incubation for 1 hour at RT), followed by incubation with tetramethylbenzidine (TMB) substrate solution. Reaction was stopped by addition of 1 M H₂SO₄ and the absorbance at 450 nm was determined with a Multiskan FC absorbance reader (Thermo Scientific, Karlsruhe, Germany) and data were analyzed using the software Microsoft Excel and GraphPad Prism 4 (GraphPad, La Jolla, Calif.) (FIG. 5). In Table 3, the calculated EC₅₀ values for the binding of TNF, scTNFR2 and the complexes to immobilized huTNFR2 and mTNFR2 based on the ELISA assay are summarized.

EC50 [3]: 0.508 nM
B1: EHD2-scTNFR2 (human) (ligand)
chain: DFTPPTVKILQSSCDGGGHFPPTIQLLCLVSGYTPGTINITWLEDGQVMDVDLSTASTTQEGELASTQSELTLSQKHWLSDRTYTCQVTYQGHTFEDSTKKCADSNGGGSGGGSGGGSGGGSGGGSGGSEFLASSRTPSDKPVAHVVANPQAEGQLQWLNRRANALLANGVELRDNQLVVPSEGLYLIYSQVLFKGQGCPSTHVLLTHTISRIAVSYQTKVNLLSAIKSPCQRETPEGAEAKPWYEPIYLGGVFQLEKGDRLSAEINRPDYLNFRESGQVYFGIIALGGGGSSSRTPSDKPVAHVVANPQAEGQLQWLNRRANALLANGVELRDNQLVVPSEGLYLIYSQVLFKGQGCPSTHVLLTHTISRIAVSYQTKVNLLSAIKSPCQRETPEGAEAKPWYEPIYLGGVFQLEKGDRLSAEINRPDYLNFRESGQVYFGIIALGGGGSSSRTPSDKPVAHVVANPQAEGQLQWLNRRANALLANGVELRDNQLVVPSEGLYLIYSQVLFKGQGCPSTHVLLTHTISRIAVSYQTKVNLLSAIKSPCQRETPEGAEAKPWYEPIYLGGVFQLEKGDRLSAEINRPDYLNFRESGQVYFGIIAL
notes: Hexavalent dimer of two subunits; also called hexavalent EHD2-scTNFR2
EC50 of Kym-1 cell viability (crystal violet assay after 16 h) [1]: 37000 nM
EC50 values (nM) of cell death induction using Kym-1 cells [2]: 0.0126 nM

Reference: patent US20210395323A1 (UNIVERSIT T STUTTGART, published 2021)
